The assay has as its target human soluble Abeta (1-40) (human) (UniProt P05067). The assay can be described thus: KinExA equilibrium, antigen on sepharose beads, soluble Abeta (1-40) titrated, 37 C.

Usually Kd stands for the constant that tells how readily two partners part at equilibrium.

Sequence of human soluble Abeta (1-40) (human) (P05067 672-711 limits assumed): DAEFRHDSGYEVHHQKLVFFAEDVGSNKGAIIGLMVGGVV

The substance “murine 266 Fab (Fab fragment of the murine monoclonal antibody designated 266)” gave a Kd of 0.24 nM.

The record behind these values is US20100015155A1.
